Laboratory results as given in patent publication US20240391991A1, “MODULATION OF WNT SIGNALLING IN PULMONARY DISORDERS” (Surrozen Operating, Inc., priority 2021, published 2024).
“Also recorded” adds a separate entry of the source.

How the values were obtained:
[1] = system: mouse AT2 organoid cultures; experiment: Mouse AT2 cell organoid expansion, CellTiter-Glo assay; assay type: cell-based; settings: SWAP in combination with RSPO2; C59 present; FIG. 9
Experimental: (§1) In all of the AT2 cell organoid experiments, the Wnt signaling inhibitor, C59, was used to prevent endogenous secretion of Wnt ligands. […] AT2 cell organoid growth was assessed with the CellTiter Glo assay.

human AT2 cell organoid [2] = experiment: Human AT2 cell organoid growth, CellTiter Glo assay; assay type: cell-based
Experimental: For ex vivo studies, 3D organoid cultures (see, e.g., Zacharias, W. et al. (2018) Nature 555:251-257 and Barkauskas et al. (2017) Development 144:986-997) were constructed by combining primary human lung fibroblasts from healthy, pulmonary fibrosis, or COPD patients with alveolar epithelial cells (AT2 and AEP cells) from patients. Organoids were cultured in SAGM medium with growth factor free Matrigel. The Wnt antagonist and agonist were added in a sequential or concurrent manner to determine the effect on the fibroblast/myofibroblast proliferation, matrix production, alveolar epithelial cell proliferation and AT1/AT2 cell fate trans-differentiation. Alveolar organoids can also be cultured directly from human distal lung cells including purified AT2 cells (Kobayashi et al., (2020) supra).
as §1

[3] = system: acute bleomycin mouse model; experiment: Bleomycin-induced acute lung injury (fibrosis) mouse model; assay type: in vivo; settings: agent alone
Description: The acute lung injury (single bleomycin treatment; FIG. 1) and chronic intermittent/low dose bleomycin mouse models (FIG. 2) were used to determine the therapeutic effects of Wnt antagonist and agonist (administered concurrently or sequentially or individually) in combination with or without anti-fibrotic drugs (e.g., pirfenidone and nintedanib) to assess effects on anti-fibrotic and improved respiratory functions (see, e.g., Degryse, A. et al. (2010) Am J Physiol Lung Cell Mol Physiol. 299:442-52). Improvement of fibrosis was observed upon treatment with a WNT agonist, SWAP5 (see, e.g., FIG. 7, FIG. 10). Specifically, bleomycin was administered intratracheally to the mice at day 0, and animals were treated twice weekly with an agonist approach—combination of SWAP5 (FZD1,2,5,7,8 multi-FZD-specific SWAP) and RSPO2 (combo)—for two weeks starting at day 7 until termination at day 21. […] Improvement of fibrosis was also observed upon treatment with a Wnt agonist or the Wnt signaling enhancer RSPO2 alone (FIG. 10).

human AT2 cell organoid [4] = experiment: Human AT2 organoid size (diameter, microscopy); assay type: cell-based; settings: in the absence of RSPO

B1: SWAP3: FZD5,8-specific Wnt agonist (FZD5,8 and LRP6); heavy/light chains SEQ ID NO: 7 and 8 (antibody)
heavy: EVQLVESGGGLVQPGGSLRLSCAASGFTFTSYYISWVRQAPGKGLEWVAEISPYSGSTYYADSVKGRFTISADTSKNTAYLQMNSLRAEDTAVYYCALRARPPIRLHPRGSVMDYWGQGTLVTVSSGGGGSGGGGSGGGGSEVQLVESGGGLVQPGGSLRLSCAASGFNISYSYIHWVRQAPGKGLEWVASIYSSSGSTSYADSVKGRFTISADTSKNTAYLQMNSLRAEDTAVYYCARGAIDYWGQGTLVTVSSASTKGPSVFPLAPSSKSTSGGTAALGCLVKDYFPEPVTVSWNSGALTSGVHTFPAVLQSSGLYSLSSVVTVPSSSLGTQTYICNVNHKPSNTKVDKKVEPKSCDKTHTCPPCPAPEAAGGPSVFLFPPKPKDTLMISRTPEVTCVVVDVSHEDPEVKFNWYVDGVEVHNAKTKPREEQYNSTYRVVSVLTVLHQDWLNGKEYKCKVSNKALGAPIEKTISKAKGQPREPQVYTLPPSREEMTKNQVSLTCLVKGFYPSDIAVEWESNGQPENNYKTTPPVLDSDGSFFLYSKLTVDKSRWQQGNVFSCSVMHEALHNHYTQKSLSLSPGK
light: DIQMTQSPSSLSASVGDRVTITCRASQDVSTAVAWYQQKPGKAPKLLIYSASFLYSGVPSRFSGSGSGTDFTLTISSLQPEDFATYYCQQSYTTPPTFGQGTKVEIKGGGGSGGGGSGGGGSDIQMTQSPSSLSASVGDRVTITCRASQSVSSAVAWYQQKPGKAPKLLIYSASSLYSGVPSRFSGSRSGTDFTLTISSLQPEDFATYYCQQWYSSGHVLITFGQGTKVEIKRTVAAPSVFIFPPSDEQLKSGTASVVCLLNNFYPREAKVQWKVDNALQSGNSQESVTEQDSKDSTYSLSSTLTLSKADYEKHKVYACEVTHQGLSSPVTKSFNRGEC
Which results are given for B1?
expansion of mouse AT2 organoid cultures (CellTiter-Glo) [1]: led to the expansion of mouse AT2 organoid cultures; effectiveness on human AT2 organoid expansion versus Chir99021 (human AT2 cell organoid [2]; 10 nM concentration, in the absence of RSPO, FIG. 8): more effective than the small molecule Wnt pathway activator, Chir99021; human AT2 organoid culture outgrowth/viability (CellTiter Glo) (human AT2 cell organoid [2]; SWAP alone, in the absence of RSPO, C59 present, FIG. 8): induced human AT2 organoid culture outgrowth/viability as assessed by the CellTiter Glo assay in a concentration-dependent manner; also recorded: induce human AT2 cell organoid expansion alone (in the absence of RSPO) in a dose-dependent manner; self-renewal and expansion of human AT2 cells (human AT2 cell organoid [2]; summary of organoid results): promotes the self-renewal and expansion of human AT2 cells; percentage of lung area affected by fibrosis ([3]; dosed four times between week 1 and week 3, vs anti-GFP, FIGS. 10-11): reduced the fibrosis score, the percentage of lung affected, immune cell infiltration, and cytokine levels in the acute bleomycin mouse model in a dose-dependent manner; also recorded: reduce the area of the lung that is fibrotic; fibrosis score (Modified Ashcroft) ([3]; dosed four times between week 1 and week 3, vs anti-GFP, FIGS. 10-12): reduced the fibrosis score, the percentage of lung affected, immune cell infiltration, and cytokine levels in the acute bleomycin mouse model in a dose-dependent manner; also recorded: lower the severity of fibrosis; percent of ACTA2 in the lung ([3]; FIG. 11D): reduction of fibrosis; immune cell infiltration / inflammation (H&E based pathology scores) ([3]; FIG. 11E): reduced the fibrosis score, the percentage of lung affected, immune cell infiltration, and cytokine levels in the acute bleomycin mouse model in a dose-dependent manner; also recorded: reduction in inflammation; IL6 in lung tissue (Meso Scale Discovery) ([3]; FIG. 11F): reduction in cytokines; IL1B in lung tissue (Meso Scale Discovery) ([3]; FIG. 11G): reduction in cytokines; GRO/CXCL1 in lung tissue (Meso Scale Discovery) ([3]; FIG. 11H): reduction in cytokines; cytokine levels ([3]; lung tissue, FIG. 11): reduced the fibrosis score, the percentage of lung affected, immune cell infiltration, and cytokine levels in the acute bleomycin mouse model in a dose-dependent manner; human AT2 cell organoid growth as organoid size (diameter) (human AT2 cell organoid [4]; C59 present, FIG. 6): expand AT2 organoids; numbers of organoids and organoid size by microscopy (human AT2 cell organoid [4]; FIG. 8): increased numbers of organoids and organoid size
